In patent US20100310509A1 (published 2010):

T1: soluble human LIFR (leukemia inhibitory factor receptor) (human, UniProt P42702 45-833)
T1 construct: extracellular domain; Bought; also called soluble LIFR
T1 sequence (looked up): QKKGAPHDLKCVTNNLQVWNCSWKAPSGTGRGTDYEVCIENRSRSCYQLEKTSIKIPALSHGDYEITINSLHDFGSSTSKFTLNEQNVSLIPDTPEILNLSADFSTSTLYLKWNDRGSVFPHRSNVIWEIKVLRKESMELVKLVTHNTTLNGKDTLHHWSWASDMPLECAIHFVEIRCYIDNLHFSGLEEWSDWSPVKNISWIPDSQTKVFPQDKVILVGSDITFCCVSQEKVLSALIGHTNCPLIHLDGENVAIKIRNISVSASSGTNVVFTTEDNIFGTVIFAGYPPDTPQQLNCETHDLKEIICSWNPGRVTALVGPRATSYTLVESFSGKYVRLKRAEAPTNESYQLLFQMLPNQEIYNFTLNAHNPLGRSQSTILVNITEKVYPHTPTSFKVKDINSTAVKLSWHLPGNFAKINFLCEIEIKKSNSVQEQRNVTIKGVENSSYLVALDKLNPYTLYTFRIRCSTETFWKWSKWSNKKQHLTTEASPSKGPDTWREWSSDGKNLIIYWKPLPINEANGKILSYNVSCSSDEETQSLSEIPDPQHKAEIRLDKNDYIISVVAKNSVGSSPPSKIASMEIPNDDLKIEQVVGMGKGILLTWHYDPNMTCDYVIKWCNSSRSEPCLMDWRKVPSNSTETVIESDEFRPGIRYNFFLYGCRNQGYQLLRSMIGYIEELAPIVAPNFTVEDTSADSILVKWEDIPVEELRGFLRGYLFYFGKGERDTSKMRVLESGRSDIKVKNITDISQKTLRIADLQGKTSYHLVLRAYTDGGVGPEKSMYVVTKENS

B1: OSM-WT ('AGA' modified human Oncostatin M, referred to as wild-type OSM) (ligand)
chain: AAIGSCSKEYRVLLGQLQKQTDLMQDTSRLLDPYIRIQGLDVPKLREHCRERPGAFPSEETLRGLGRRGFLQTLNATLGCVLHRLADLEQRLPKAQDLERSGLNIEDLEKLQMARPNILGLRNNIYCMAQLLDNSDTAEPTKAGAGASQPPTPTPASDAFQRKLEGCRFLHGYHRFMHSVGRVFSKWGESPN
notes: also called hOSM with AGA modification; not shown: N-terminal FLAG tag left after thrombin removal of GST
B2: OSM-M1 (OSM with BC loop truncated from 12 to 7 amino acids) (ligand)
chain: AAIGSCSKEYRVLLGQLQKQTDLMQDTSRLLDPYIRIQGLDVPKLREHCRERPGAFPSEETLRGLGRRGFLQTLNATLGCVLHRLADLEQRLGAPSGLNIEDLEKLQMARPNILGLRNNIYCMAQLLDNSDTAEPTKAGAGASQPPTPTPASDAFQRKLEGCRFLHGYHRFMHSVGRVFSKWGESPN
notes: Made from the 'AGA' modified OSM template; lacks the thrombin site; not shown: N-terminal FLAG tag left after thrombin removal of GST
B3: human leukemia inhibitory factor (LIF) (ligand)
chain: not shown
notes: Purified recombinant protein; also called hLIF
B4: OSM-M2 (OSM with BC loop truncated from 12 to 4 amino acids) (ligand)
chain: AAIGSCSKEYRVLLGQLQKQTDLMQDTSRLLDPYIRIQGLDVPKLREHCRERPGAFPSEETLRGLGRRGFLQTLNATLGCVLHRLADLEQRLGGGNIEDLEKLQMARPNILGLRNNIYCMAQLLDNSDTAEPTKAGAGASQPPTPTPASDAFQRKLEGCRFLHGYHRFMHSVGRVFSKWGESPN
notes: as for B2

Key:
[1] = target: T1, soluble human LIFR (leukemia inhibitory …); experiment: ELISA, apparent KD (KD,App), cytokine coated, soluble LIFR titrated (direct)
Procedure: For direct interaction studies, cytokines (LIF, OSM-WT, OSM-M1 or OSM-M2) were immobilized on the 96 well ELISA plate by incubating the wells with 200 μl of 5 nM cytokine solution in PBS, pH 7.4 overnight at 4° C. The wells were then blocked with blocking buffer (4% BSA in PBS) for 1 hour at room temperature. After washing with 250 μl of washing buffer (0.05% Tween-20 in PBS) 3 times, the cytokines were treated with a series of concentrations of soluble human LIFR (Catalog #249-LR-050/CF, R&D Systems, Minneapolis, Minn.) or OSMR (Catalog #4389-OR-050, R&D Systems, Minneapolis, Minn.) in 150 μl of blocking buffer for 2 hours. The wells were then incubated with 150 μl of polyclonal anti-hLIFR (Catalog #AF249-NA, R&D Systems, Minneapolis, Minn.) or anti-hOSMR (Catalog #AF662, R&D Systems, Minneapolis, Minn.) in blocking buffer for 1 hour followed by incubation with 150 μl of HRP conjugated […] antibody (GE Healthcare, Uppsala, Sweden) in blocking buffer for 30 minutes. The wells were then washed 3 times with washing buffer and treated with 100 μl of chromogenic Slow-TMB® HRP substrate (Catalog #34024, Thermo Scientific Fisher, Rockford, Ill.) for 15 minutes. The reaction was then stopped by adding 100 μl of 2M H₂SO₄ and the absorbance of each well at 450 nm was read immediately using a UV detector (iMARK® Microplate Reader, Biorad, Hercules, Calif.). For interactions of higher order, soluble human gp130 (Catalog #671-GP-100, R&D Systems, Minneapolis, Minn.) was immobilized on 96 well ELISA microplates by incubating the wells with 200 μl of 1 nM gp130 solution (in PBS, pH 7.4) overnight at 4° C. The wells were then blocked with 150 μl of blocking buffer (4% BSA in PBS) for 1 hour at room temperature. After washing with 250 μl of washing buffer 3 times, gp130 was treated with saturating amounts of the cytokines (500 nM hLIF, 200 nM OSM-WT, 200 nM OSM-M1 or 200 nM OSM-M2) in a volume of 150 μl of blocking buffer for a period of 2 hours. The cytokine solution was discarded and a series of concentrations of soluble human LIFR or OSMR in a final volume of 150 μl blocking buffer were then added to the wells and the incubation was continued for another 1 hour. After washing with 250 μl of washing buffer 3 times, the wells were then incubated with 150 μl of polyclonal anti-hLIFR or anti-hOSMR in blocking buffer for 1 hour.

[2] = target: LIFR:gp130 receptor complex on human retinal Müller cells (human, UniProt P42702 45-1097; P40189 23-918); experiment: cell-based or functional assay
Sequence of LIFR:gp130 receptor complex on human retinal Müller cells (P42702 45-1097, one chain of several): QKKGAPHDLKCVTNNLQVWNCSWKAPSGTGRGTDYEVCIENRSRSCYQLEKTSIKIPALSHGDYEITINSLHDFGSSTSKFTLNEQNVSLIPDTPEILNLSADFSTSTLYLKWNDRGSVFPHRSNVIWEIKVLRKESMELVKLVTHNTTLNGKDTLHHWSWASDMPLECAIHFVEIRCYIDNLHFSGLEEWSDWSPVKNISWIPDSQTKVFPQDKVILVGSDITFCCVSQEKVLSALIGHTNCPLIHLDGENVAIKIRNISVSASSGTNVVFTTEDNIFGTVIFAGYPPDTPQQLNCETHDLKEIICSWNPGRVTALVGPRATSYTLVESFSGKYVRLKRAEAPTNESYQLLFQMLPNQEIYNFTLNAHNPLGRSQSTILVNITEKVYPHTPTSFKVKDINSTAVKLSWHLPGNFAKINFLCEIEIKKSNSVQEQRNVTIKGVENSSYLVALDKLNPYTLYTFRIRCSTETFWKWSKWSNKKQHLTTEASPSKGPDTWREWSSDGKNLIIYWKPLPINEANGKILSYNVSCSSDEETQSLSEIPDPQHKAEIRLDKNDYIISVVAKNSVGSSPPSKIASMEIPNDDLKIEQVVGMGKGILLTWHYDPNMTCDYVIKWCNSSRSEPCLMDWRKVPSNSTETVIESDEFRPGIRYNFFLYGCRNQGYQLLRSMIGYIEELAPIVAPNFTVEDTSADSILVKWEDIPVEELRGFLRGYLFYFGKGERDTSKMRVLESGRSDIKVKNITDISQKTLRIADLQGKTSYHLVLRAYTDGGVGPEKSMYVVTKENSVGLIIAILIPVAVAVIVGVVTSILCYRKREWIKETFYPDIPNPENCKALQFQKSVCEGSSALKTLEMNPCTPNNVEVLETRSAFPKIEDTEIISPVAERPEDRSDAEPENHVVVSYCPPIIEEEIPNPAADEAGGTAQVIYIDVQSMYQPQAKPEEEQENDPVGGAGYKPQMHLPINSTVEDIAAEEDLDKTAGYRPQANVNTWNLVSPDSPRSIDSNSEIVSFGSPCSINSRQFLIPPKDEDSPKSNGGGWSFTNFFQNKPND

[3] = target: OSMR:gp130 receptor complex on A375 melanoma cells (UniProt Q99650 28-979; P40189 23-918, limits assumed); experiment: cell-based or functional assay
[4] = target: T1, soluble human LIFR (leukemia inhibitory …); experiment: SPR, ratio of KD values
Procedure: A concentration series of soluble LIFR (# 249-LR-050/CF, R&D Systems, Minneapolis, Minn.), soluble OSMR (# 4389-OR-50, R&D Systems, Minneapolis, Minn.) or soluble gp130 (# 228-GP-050/CF, R&D Systems, Minneapolis, Minn.) in running buffer (10 mM HEPES pH 7.4, 150 mM NaCl, 3.4 mM EDTA, 0.005% Tween-20) were injected over both channels at a flow rate of 25 μl/min. Following a dissociation period of 3 minutes, the surfaces were regenerated by injecting 10 mM NaOH for 30 seconds. Rate constants for association (kₐ) and dissociation (kd) rates were derived by global analysis of the response curves fit to a 1:1 kinetic model (Equations 1 and 2) using QDat software (BioLogic Software, Ltd. Knoxville Tenn. and Nomadics, Inc. Stillwater, Okla.) using 1:1 stoichiometry.
Reducing the size of the BC loop improves OSM's affinity towards LIFR and OSMR. […] To directly measure the binding kinetics of these ligand-receptor interactions, surface plasmon resonance (SPR) was used. The cytokines (LIF, OSM-WT, OSM-M1 and OSM-M2) were immobilized on the sensor chip surface, while recombinant soluble receptors were used as the analytes (FIG. 11).

Binder | Kd [1] [nM] | concentration needed for receptor activation, against native OSM [2] [fold lower concentration] | concentration needed for receptor activation, against native OSM [3] [fold lower concentration] | fold higher affinity than towards gp130 [4] [fold]
B1 | 60 |  |  | 
B2 | 10.1 | 3 | 3 | 
B3 | 8.58 |  |  | 23
B4 | 8.75 | 3 | 3 | 
